The record followed here is publication PMC11380581 (Cell, 2024).

A word on the stoichiometry N: it is a count of units in the complex or per binding partner.

Data set [1] has as its target Flag-tagged NRC4 co-expressed with HA-tagged Bs2 and AvrBs2 (Figure S6F) (N. benthamiana). The data set is described as follows: native gel or EMSA. (In general: Mobility shift assays separate free from complexed probe on a gel.)
Data set [2] deals with NRC3-L21E-3xFlag (active NRC3). Put plainly: negative-stain EM.
The data set “negative-stain EM” deals with the molecule itself. The data set is described as follows: negative-stain EM.
Data set [3] concerns the molecule itself. The data set is described as follows: cryo-EM structure.
Data set [4] concerns the molecule itself. The data set is described as follows: cryo-EM structure. The source holds these as a separate data set.
Data set [5] deals with the molecule itself. The data set is described as follows: native gel or EMSA + other: negative-stain EM.

As to “Flag-tagged NRC4 co-expressed with HA-tagged Bs2 and AvrBs2 (Figure S6F) (from UniProt A0A5J6DCT7 1-881) (natural protein)”, the stoichiometry N in data set [1] worked out at 6. “NRC3-L21E-3xFlag (active NRC3) (natural protein)”: the stoichiometry N in data set [2] was found to be 6.

B1: NRC0-EEE-3XFlag (active NRC0) (natural protein)
chain: MADAVVEFELLNEKQLELYHVDLLSGVKDEVESLHRELSLMKAFLKDSREKRSEYEYVRELVSQITIVAYEAEDIIDTFVTNAAMQKARSTVRRAFHVFDHSSKLRNVAKEIESIKVKVKEIYDKKMFGIQSLHGGESSHRSPPQKRVPMVEEENVVGFDDEARKISSRLTNGSEELEIISIVGMGGLGKTTLAKKVYTDSSIEFHFYNRAWIYVSQLYSRKEVFLGILDSLSLITDEMYKMNDEKLAGELFSHLRSKRYLVVIDDVWTMEAWDDLQMAFPKTATGSRILLTTRNTEVALHANPEGLPHHLRFLTHEESWELLSKKVFRKGICPLELEDIGLQIAKKCYGLPLAIVVVSGLLLKKEKTRDWWKKIANDVSSYVARDPKQCMDVLALSYKHLPDHLKVCFIYFGVFPEDFEIPVWKLLRLWTSEGFVQKMGQECLEDTAEEYLEDLVDRNLVLVAKKRASGRIKTCRIHDMLRDLSVKMGSEEKFLEVFKESAQNHSLSPISKYHRRLCVHSHFLDFITSRPFGPNVRSFLCFASEEMELLREHTSFLHEAFRLVRVLDLKYINFPRFPTEIVQLVHLRYIALSGNFRVLPASISKLWNLETLIVGTKSRELDIQVDIWKMSQFKHLYTSGLSCLRGPPAKTRKDNADPFVRRNIQTISTVLPDCCKENILARTPGLRKLGIRGKLATLVATNGDSSLFDNLAKLDNLETLKLLNDTFPLPPSQCQIPGLPQSYKFPPNLKKLTLSDTFLDWSHISTLGMLPNLEVLKLKDYAFKGTQWEPLDGGFRLLRVLHIGRTNLEHWNASGHHFPRLQQVFLKHCSSLNEIPFGLVEVSSLQNIELFWPTPAAAASARIIQQEKQEGDIKDNVFKLVIYPPDI
With B1, the “stoichiometry N” value in the data set “negative-stain EM” amounted to 6.

B2: NRC4 L9E D478V (NLR Required for Cell Death 4 with the L9E and D478V mutations) (natural protein, N. benthamiana)
chain: MADAVVNFEVENLLQLLTDNVKLIGSAKGELENLLKEVQHLKGFLDDAAKLPSDSEQWKVLVEEIQKTVHTAEDAVDKFVVQAKLHKEKNKMARILDVGHLATVRNLAAEVKGIHDQVKELRLNNQALQARPTLELPKKGSSETTQQGPALEDDEVVGFDEEANKVINRLVKESKDLDIIPVVGMPGLGKTTLARKIYKDPKLSYEFFGVHWVYVGQSYKIKDVFLNILKFFTRRTEDYQHEDVDALAKVIAGFINKGGRCLICLDDVWETKVIDYVKTIFPENEKGHRVMMTTRNKVLATYANSDPHDLKFLTPKESFELLVKRVFGKKPCPKDLVGHGESIAGKCGGVPLAVVVIAGALRGRPNTSDWIRVERNVVQHLYTNSEESCLKFVEMSYDHLPQEVQTCFLYCGVFPRGFDIPSWKVIRLWIAEGLIKPQESYTLEEIAEFYLNDLVNRNLVILQQKRSDGQIKTCRLHVMLHQFCKKEASNKWLFQEVSLTPDQAIPIEDPNKSRRLCIQPSNLKDFLSKKPSAEHVRSFYCFSSKEKQIRGLTPNDIKLIHKAFPLVRVLDVESLKFLFSKDFNQLFHLRYIAISGDFNAIPLTFGKFWNLQTLILNTSTSESTLDVKADIWNMLQLRHLHTNIPAKLQPPTATTSGKASCLQTLCMVAPESCEKEVLAKACHLKKLSIRGQMAAFLGAYKGGINNLVELKCLEQLKLLNDVLYMNKAPHLPQTFSQLVRTVKKLTLTNTRFAWSEADKLGQLESLEILKFKENAFAGDSWKPKMGFSALRVLWIERAEFETWEASEINFPVLRNLVLMSCDKLETVPFELANLSDLYEMRLENTSKAVKSAKAILESKTDKNIKFNLTIFPPEAGSKATQ
For the molecule B2, the “stoichiometry N” value in “cryo-EM structure [3]” was 6; in “cryo-EM structure [4]”, 12.

B3: NRC4 L9E (natural protein, N. benthamiana)
chain: MADAVVNFEVENLLQLLTDNVKLIGSAKGELENLLKEVQHLKGFLDDAAKLPSDSEQWKVLVEEIQKTVHTAEDAVDKFVVQAKLHKEKNKMARILDVGHLATVRNLAAEVKGIHDQVKELRLNNQALQARPTLELPKKGSSETTQQGPALEDDEVVGFDEEANKVINRLVKESKDLDIIPVVGMPGLGKTTLARKIYKDPKLSYEFFGVHWVYVGQSYKIKDVFLNILKFFTRRTEDYQHEDVDALAKVIAGFINKGGRCLICLDDVWETKVIDYVKTIFPENEKGHRVMMTTRNKVLATYANSDPHDLKFLTPKESFELLVKRVFGKKPCPKDLVGHGESIAGKCGGVPLAVVVIAGALRGRPNTSDWIRVERNVVQHLYTNSEESCLKFVEMSYDHLPQEVQTCFLYCGVFPRGFDIPSWKVIRLWIAEGLIKPQESYTLEEIAEFYLNDLVNRNLVILQQKRSDGQIKTCRLHDMLHQFCKKEASNKWLFQEVSLTPDQAIPIEDPNKSRRLCIQPSNLKDFLSKKPSAEHVRSFYCFSSKEKQIRGLTPNDIKLIHKAFPLVRVLDVESLKFLFSKDFNQLFHLRYIAISGDFNAIPLTFGKFWNLQTLILNTSTSESTLDVKADIWNMLQLRHLHTNIPAKLQPPTATTSGKASCLQTLCMVAPESCEKEVLAKACHLKKLSIRGQMAAFLGAYKGGINNLVELKCLEQLKLLNDVLYMNKAPHLPQTFSQLVRTVKKLTLTNTRFAWSEADKLGQLESLEILKFKENAFAGDSWKPKMGFSALRVLWIERAEFETWEASEINFPVLRNLVLMSCDKLETVPFELANLSDLYEMRLENTSKAVKSAKAILESKTDKNIKFNLTIFPPEAGSKATQ
For the molecule B3, the “stoichiometry N” value in the data set “negative-stain EM” is 6.

B4: wild type NRC4, Flag-tagged (natural protein, N. benthamiana)
chain: MADAVVNFLVENLLQLLTDNVKLIGSAKGELENLLKEVQHLKGFLDDAAKLPSDSEQWKVLVEEIQKTVHTAEDAVDKFVVQAKLHKEKNKMARILDVGHLATVRNLAAEVKGIHDQVKELRLNNQALQARPTLELPKKGSSETTQQGPALEDDEVVGFDEEANKVINRLVKESKDLDIIPVVGMPGLGKTTLARKIYKDPKLSYEFFGVHWVYVGQSYKIKDVFLNILKFFTRRTEDYQHEDVDALAKVIAGFINKGGRCLICLDDVWETKVIDYVKTIFPENEKGHRVMMTTRNKVLATYANSDPHDLKFLTPKESFELLVKRVFGKKPCPKDLVGHGESIAGKCGGVPLAVVVIAGALRGRPNTSDWIRVERNVVQHLYTNSEESCLKFVEMSYDHLPQEVQTCFLYCGVFPRGFDIPSWKVIRLWIAEGLIKPQESYTLEEIAEFYLNDLVNRNLVILQQKRSDGQIKTCRLHDMLHQFCKKEASNKWLFQEVSLTPDQAIPIEDPNKSRRLCIQPSNLKDFLSKKPSAEHVRSFYCFSSKEKQIRGLTPNDIKLIHKAFPLVRVLDVESLKFLFSKDFNQLFHLRYIAISGDFNAIPLTFGKFWNLQTLILNTSTSESTLDVKADIWNMLQLRHLHTNIPAKLQPPTATTSGKASCLQTLCMVAPESCEKEVLAKACHLKKLSIRGQMAAFLGAYKGGINNLVELKCLEQLKLLNDVLYMNKAPHLPQTFSQLVRTVKKLTLTNTRFAWSEADKLGQLESLEILKFKENAFAGDSWKPKMGFSALRVLWIERAEFETWEASEINFPVLRNLVLMSCDKLETVPFELANLSDLYEMRLENTSKAVKSAKAILESKTDKNIKFNLTIFPPEAGSKATQ
For the molecule B4, the “stoichiometry N” value in data set [5] is 2.
